Earlier results, collected in patent publication US20250341526A1, “NOVEL DYES” (Quantum-Si Incorporated, priority 2024, published 2025).
Changes are numbered by the printed parent chain.

B1: PS523: amino acid recognition protein, SEQ ID NO: 151 (protein, listed as Saccharomycetaceae sp.)
chain: MAKSHRHTGRNCGRAFQPGEPLYRCQECAYDDTCVLCISCFNPDDHVNHHVSTHICNELHDGICDCGDAEAWNVPLHCKAEED
B2: PS528: amino acid recognition protein, SEQ ID NO: 156 (protein, listed as Kluyveromyces lactis)
chain: MHSKFNHAGRICGAKFRVGEPIYRCKECSFDDTCVLCVNCFNPKDHVGHHVYTSICTEFNNGICDCGDKEAWNHELNCKGAED
B3: PS621: amino acid recognition protein, SEQ ID NO: 181 (protein, listed as Kluyveromyces marxianus)
chain: B2 chain with N6S, R17K, V47T, S54T, E75T, N77F, G80A, A81E, D83G
B4: PS527: amino acid recognition protein, SEQ ID NO: 155 (protein, listed as Mizuhopecten yessoensis)
chain: MLCGKVFKYGEPTYSCRDCANDPTCVLCIDCFQKSAHKKHRYKMSTSGGGGYCDCGDSEAWKTAPFCSNHKA
B5: PS615: amino acid recognition protein, SEQ ID NO: 175 (protein, listed as Kluyveromyces marxianus)
chain: MVNEHRGSQCSKQCHGTETVYYCFDCTKNPLYEICEECFDETQHMGHRYTSRVVTRPEGKVCHCGDISGYNNPEKAFQCKI
B6: PS616: amino acid recognition protein, SEQ ID NO: 176 (protein, listed as Kluyveromyces lactis)
chain: B5 chain with V2H, E4D, E37D, T42S, M45I, G69S, N72D, E74K, K80R
B7: PS619: amino acid recognition protein, SEQ ID NO: 179 (protein, listed as Vanderwaltozyma polyspora)
chain: MENLHIGSCCNRQCYPTQTVYYCLTCTINPLYEICELCFDEDKHVGHTYISKSVIRPEGKVCHCGNPNVFKKPEFAFNCKN
B8: PS538: amino acid recognition protein, SEQ ID NO: 166 (protein, listed as Saccharomyces cerevisiae)
chain: MGDVHKHTGRNCGRKFKIGEPLYRCHECGCDDTCVLCIHCFNPKDHVNHHVCTDICTEFTSGICDCGDEEAWNSPLHCKAEEQ
B9: PS25: amino acid recognition protein, SEQ ID NO: 167 (protein, listed as Saccharomyces cerevisiae)
chain: B8 chain with D3S
B10: PS522: amino acid recognition protein, SEQ ID NO: 150 (protein, listed as Vombatus ursinus)
chain: MLCGKVFKSGETTYSCRDCAIDPTCVLCMNCFQSSVHKNHRYKMHTSTGGGFCDCGDTEAWKTGPFCTIHEP
B11: PS525: amino acid recognition protein, SEQ ID NO: 153 (protein, listed as Mus musculus)
chain: B10 chain with N30D, T68V, I69D
B12: PS529: amino acid recognition protein, SEQ ID NO: 157 (protein)
chain: B10 chain with S9G, N30D, S34N, V36I, F66L, T68A, I69N
modifications: Chelonia mydas
B13: PS541: amino acid recognition protein, SEQ ID NO: 170 (protein)
chain: MRCGHIFRAGEATYRCITCAADDTCVLCSRCFDASDHTGHQYQISLSSGNCGCCDCGDEEAWRLPLFCAIHTD
modifications: Aspergillus neoniger
B14: PS536: amino acid recognition protein, SEQ ID NO: 164 (protein, listed as Aphis gossypii)
chain: MVCGRVFKMGEPTYNCRECGMDSTCVLCVDCFKRSPHKNHKYKMGTSYGGGCCDCGDVEAWKHDPYCQTHKL
B15: PS534: amino acid recognition protein, SEQ ID NO: 162 (protein)
chain: MKCGHIFRKGEVFYRCKTCSVDSNSALCVKCFRATSHKDHETSFTVSAGSGGCCDCGNAAAWIGDVSCKIHSH
modifications: Schizosaccharomyces pombe
B16: PS543: amino acid recognition protein, SEQ ID NO: 172 (protein, listed as Trichinella spiralis)
chain: MKCNRQLICGEPTYCCLDCACDQTCIFCHACFQSSEHKNHRYSMSTSEGSGTCDCGDKEAWKSNYYCLNHKP
B17: PS535: amino acid recognition protein, SEQ ID NO: 163 (protein, listed as Mus musculus)
chain: MLCGRVFKVGEPTYSCRDCAVDPTCVLCMECFLGSIHRDHRYRMTTSGGGGFCDCGDTEAWKEGPYCQKHKL
B18: PS532: amino acid recognition protein, SEQ ID NO: 160 (protein, listed as Schizosaccharomyces cryophilus)
chain: MSCGRIFKKGEVFYRCKTCSVDSNSALCVKCFRATDHHGHETSFTISAGSGGCCDCGNSAAWIRDMPCKIHNR
B19: PS530: amino acid recognition protein, SEQ ID NO: 158 (protein, listed as Acropora millepora)
chain: MLCGKVFKVGEPTYSCRDCGYDNTCVLCINCFQKSIHKNHHYKMNTSGGGGVCDCGDVEAWKEGEACEIHQQ
B20: PS533: amino acid recognition protein, SEQ ID NO: 161 (protein, listed as Contarinia nasturtii)
chain: MVCGRVFKMNEPFYSCRECGMDPTCVLCVNCFKQSAHRHHKYKMGTSAGGGCCDCGDNEAWKQDHYCDEHTK
B21: PS540: amino acid recognition protein, SEQ ID NO: 169 (protein, listed as Clathrospora elynae)
chain: MPCGHIFKNGEATYRCKTCTADDTCVLCARCFDASDHEGHQVFVSVSPGNSGCCDCGDDEAWVRPVHCNMHSA
B22: PS526: amino acid recognition protein, SEQ ID NO: 154 (protein, listed as Maylandia zebra)
chain: MLCGRVFKEGETVYSCRDCAIDPTCVLCMDCFQDSVHKSHRYKMHASSGGGFCDCGDVEAWKIGPYCSKHDP
B23: Homo sapiens UBR2: amino acid recognition protein, SEQ ID NO: 174 (protein, listed as Homo sapiens)
chain: MGPLGSLCGRVFKVGEPTYSCRDCAVDPTCVLCMECFLGSIHRDHRYRMTTSGGGGFCDCGDTEAWKEGPYCQKHE
B24: PS539: amino acid recognition protein, SEQ ID NO: 168 (protein, listed as Kazachstania africana)
chain: MQTSFTHKGRNCGRKFKVGEPLYRCHECGFDDTCVLCIHCFNPADHENHHIYTDICNDFTSGICDCGDTEAWNGDLHCKAEEI
B25: PS537: amino acid recognition protein, SEQ ID NO: 165 (protein, listed as Aedes aegypti)
chain: MVCGRVFKIGEPTYSCRECSMDPTCVLCSSCFKKSSHRLHKYKMSTSGGGGCCDCGDHEAWKRDPSCEEHAV
B26: PS617: amino acid recognition protein, SEQ ID NO: 177 (protein, listed as Eremothecium sinecaudum)
chain: MPKEHRGTSCNKHCQPTETVYYCFDCTKNPLYEICEECFDADKHLGHRWTSKVVSRPEGKICHCGDPSGLTDPENGYECKN
B27: PS620: amino acid recognition protein, SEQ ID NO: 180 (protein, listed as Saccharomyces cerevisiae)
chain: MGNMHIGTACTRLCFPSETIYYCFTCSTNPLYEICELCFDKEKHVNHSYVAKVVMRPEGRICHCGDPFAFNDPSDAFKCKN
B28: PS618: amino acid recognition protein, SEQ ID NO: 178 (protein, listed as Zygosaccharomyces bailii)
chain: MNASHKGAMCSKQCYPTETVFYCFTCTTNPLYEICESCFDEEKHRGHLYTAKVVVRPEGRVCHCGDPFVFKEPRFAFLCKN
B29: PS524: amino acid recognition protein, SEQ ID NO: 152 (protein, listed as Drosophila ficusphila)
chain: MVCGKVFKNGEPTYSCRECGVDPTCVLCVNCFKRSAHRFHKYKMSTSGGGGCCDCGDDEAWKKDHYCQLHLA
B30: PS531: amino acid recognition protein, SEQ ID NO: 159 (protein, listed as Musca domestica)
chain: B29 chain with N9I, V21M, P23Q, R34Q, F39Y, D58E, Q68E, L69E, A72R
B31: PS542: amino acid recognition protein, SEQ ID NO: 171 (protein, listed as Trichuris suis)
chain: MRCNHVFANGEATYSCRGCAADPTCVLCASCFELSAHKEHKYMITTSSGTGYCDCGDPEAWKADPFCQQHQP
B32: PS544: amino acid recognition protein, SEQ ID NO: 173 (protein, listed as Homo sapiens)
chain: MGPLGSLCGRVFKSGETTYSCRDCAIDPTCVLCMDCFQDSVHKNHRYKMHTSTGGGFCDCGDTEAWKTGPFCVNHEP

System: amino acid at a terminal position of a polypeptide
Conditions: Table 2; amino acid at terminal position (phosphotyrosine also internal); inferred from literature and/or demonstrated by the inventors; cited from earlier work

Binding Pref., K, R, H:
B1
B2
B3
B4
B5
B6
B7
B8
B9
B10
B11
B12
B13
B14
B15
B16
B17
B18
B19
B20
B21
B22
B23
B24
B25
B26
B27
B28
B29
B30
B31
B32
